This is an account of results in patent publication US20140314784A1.

Assay [1] addresses KO_3rd loop. The assay is described as follows: flow cytometry, CHO cells transiently transfected with the construct, 6C7 at 0.05 µg/ml, dot plot SSC-A against PE-A.
Assay [2] concerns the target KO_N-term. The description is as above.
For assay [3], the target named is KO_1st loop. The assay is described as above.
The target of assay [4] is KO_3rd loop. The assay is described as follows: flow cytometry, CHO cells transiently transfected with the construct, 6C7 at 0.1 µg/ml, dot plot SSC-A against PE-A.
Assay [5] deals with KO_N-term. The assay is described as above.
The target of assay [6] is KO_1st loop. Described as above.

B1: 6C7 (antibody, V domains shown)
VH: QVQLVESGGGVVQPGRSLRLSCAASGFTFSNYVMHWVRQAPGKGLEWVAVIWYDGSNKYYADSVKGRFTISRDNSKNTLSLQMNSLRAEDTAVYYCERGEGYYGSGSRYRGYYYGMDVWGQGTTVTVSS
VL: DIQMTQSPSSLSASVGDRVTITCRASQGIRTDLGWYQQKPGKAPKRLIYAASSLQSGVPSRFSGSGSGTEFTLTISSLQPEDFATYYCLQHNSYPRTFGQGTKVEIK
Take B1: the number in the positive gate (percent of cells) was 47 in assay [1]; 49.2 in assay [2]; 45.2 in assay [3]; 52.8 in assay [4]; 52.8 in assay [5]; 50.1 in assay [6].
